Results published in paper doi:10.1101/2022.09.29.510206 (bioRxiv, 2022).

Target: Norrin (Norrie Disease Protein), biotinylated (UniProt Q00604 25-133, biotin (in vivo biotinylation))
Experiment: SPR

Sequence of Norrin (Norrie Disease Protein), biotinylated (Q00604 25-133): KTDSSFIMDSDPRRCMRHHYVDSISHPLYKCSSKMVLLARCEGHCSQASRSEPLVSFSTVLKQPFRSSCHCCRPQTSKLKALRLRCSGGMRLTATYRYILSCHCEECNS

Binder	fold weaker affinity than Fz4_(CRD-Connector) [fold]
chimaera of Fz4CRD+Fz8_(Connector) (domain or fragment, human | mouse, UniProt Q9ULV1 42-151, looked up) ERRCDPIRISMCQNLGYNVTKMPNLVGHELQTDAELQLTTFTPLIQYGCSSQLQFFLCSVYVPMCTEKINIPIGPCGGMCLSVKRRCEPVLKEFGFAWPESLNCSKFPPQGNPDTLCMDYNRTDLTTAAPSPPRRLPPP	~15
mouse Fz8_(CRD-Connector), residues 30-170 (domain or fragment, UniProt Q61091 30-170, looked up) AKELACQEITVPLCKGIGYNYTYMPNQFNHDTQDEAGLEVHQFWPLVEIQCSPDLKFFLCSMYTPICLEDYKKPLPPCRSVCERAKAGCAPLMRQYGFAWPDRMRCDRLPEQGNPDTLCMDYNRTDLTTAAPSPPRRLPPP	~55
Fz4_(CRD-Connector) (M105N) mutant (domain or fragment, human, UniProt Q9ULV1 42-179, looked up, M105N is meant to introduce an N-linked glycosylation site) ERRCDPIRISMCQNLGYNVTKMPNLVGHELQTDAELQLTTFTPLIQYGCSSQLQFFLCSVYVPNCTEKINIPIGPCGGMCLSVKRRCEPVLKEFGFAWPESLNCSKFPPQNDHNHMCMEGPGDEEVPLPHKTPIQPGE	~53
